Data from patent US20220143024A1, “METHODS OF USING IMIPRIDONES” (Board of Regents, The University of Texas System, priority 2019, published 2022).

Key:
Assay in all cases: BioID-MS +ONC201
ATPAF1 (human) = ATPAF1 (human) (UniProt Q5TC12)
ECSIT (human) = ECSIT (human) (UniProt Q9BQ95)
DHRS4 (human) = DHRS4 (human) (UniProt Q9BTZ2)
GPT2 (human) = GPT2 (human) (UniProt Q8TD30)
AIFM1 (human) = AIFM1 (human) (UniProt O95831)
GFM1 (human) = GFM1 (human) (UniProt Q96RP9)
MRPS26 (human) = MRPS26 (human) (UniProt Q9BYN8)
AFG3L2 (human) = AFG3L2 (human) (UniProt Q9Y4W6)
ADCK3 (human) = ADCK3 (human) (UniProt Q8NI60)
ABAT (human) = ABAT (human) (UniProt P80404)
Chain of ABAT (human) (P80404 29-500 limits assumed): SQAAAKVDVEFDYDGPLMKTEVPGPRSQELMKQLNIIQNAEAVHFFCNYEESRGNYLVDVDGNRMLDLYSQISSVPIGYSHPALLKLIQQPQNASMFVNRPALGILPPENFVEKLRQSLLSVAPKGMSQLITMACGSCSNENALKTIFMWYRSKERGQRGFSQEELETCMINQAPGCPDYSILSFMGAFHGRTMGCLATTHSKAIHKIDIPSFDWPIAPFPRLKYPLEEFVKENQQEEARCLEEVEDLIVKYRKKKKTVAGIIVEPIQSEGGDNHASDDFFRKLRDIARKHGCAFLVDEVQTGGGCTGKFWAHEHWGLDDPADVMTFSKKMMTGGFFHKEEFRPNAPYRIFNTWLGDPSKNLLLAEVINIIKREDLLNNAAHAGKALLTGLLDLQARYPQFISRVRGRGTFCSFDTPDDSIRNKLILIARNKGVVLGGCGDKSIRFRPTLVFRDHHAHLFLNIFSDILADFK

ACADVL (human) = ACADVL (human) (UniProt P49748)
ACAD10 (human) = ACAD10 (human) (UniProt Q6JQN1)
MGME1 (human) = MGME1 (human) (UniProt Q9BQP7)
MRPL47 (human) = MRPL47 (human) (UniProt Q9HD33)
BCKDHB (human) = BCKDHB (human) (UniProt P21953)
SUPV3L1 (human) = SUPV3L1 (human) (UniProt Q8IYB8)
Chain of SUPV3L1 (human) (Q8IYB8 23-786 limits assumed): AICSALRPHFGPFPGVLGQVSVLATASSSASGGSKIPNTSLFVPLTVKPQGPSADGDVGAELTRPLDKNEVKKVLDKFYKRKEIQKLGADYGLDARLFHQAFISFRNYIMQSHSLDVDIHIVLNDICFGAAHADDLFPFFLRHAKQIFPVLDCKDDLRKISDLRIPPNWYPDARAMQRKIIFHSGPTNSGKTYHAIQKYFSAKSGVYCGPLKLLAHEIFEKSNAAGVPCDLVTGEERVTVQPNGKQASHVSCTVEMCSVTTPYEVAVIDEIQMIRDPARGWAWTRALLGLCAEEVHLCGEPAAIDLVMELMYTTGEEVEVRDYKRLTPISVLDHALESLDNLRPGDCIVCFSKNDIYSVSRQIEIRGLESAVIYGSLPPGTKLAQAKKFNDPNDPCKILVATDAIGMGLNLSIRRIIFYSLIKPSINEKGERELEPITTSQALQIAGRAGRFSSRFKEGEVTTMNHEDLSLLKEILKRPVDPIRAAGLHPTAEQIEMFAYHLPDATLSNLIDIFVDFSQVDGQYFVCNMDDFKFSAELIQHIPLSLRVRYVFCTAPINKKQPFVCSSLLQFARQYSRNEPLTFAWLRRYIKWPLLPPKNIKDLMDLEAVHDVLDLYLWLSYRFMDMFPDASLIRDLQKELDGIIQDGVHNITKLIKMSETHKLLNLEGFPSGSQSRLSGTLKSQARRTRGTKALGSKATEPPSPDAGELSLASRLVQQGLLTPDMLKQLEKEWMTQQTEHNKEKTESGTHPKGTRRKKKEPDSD

MRPL46 (human) = MRPL46 (human) (UniProt Q9H2W6)
ERAL1 (human) = ERAL1 (human) (UniProt O75616)
ACADSB (human) = ACADSB (human) (UniProt P45954)
TARS2 (human) = TARS2 (human) (UniProt Q9BW92)
MRPS11 (human) = MRPS11 (human) (UniProt P82912)
EFHA1 (human) = EFHA1 (human) (UniProt Q8IYU8)
HINT2 (human) = HINT2 (human) (UniProt Q9BX68)
SFXN4 (human) = SFXN4 (human) (UniProt Q6P4A7)
NADKD1 (human) = NADKD1 (human) (UniProt Q4G0N4)
ABCB10 (human) = ABCB10 (human) (UniProt Q9NRK6)
MRPL54 (human) = MRPL54 (human) (UniProt Q6P161)
NDUFS8 (human) = NDUFS8 (human) (UniProt O00217)
BCKDHA (human) = BCKDHA (human) (UniProt P12694)
MARS2 (human) = MARS2 (human) (UniProt Q96GW9)
Chain of MARS2 (human) (Q96GW9 30-593 limits assumed): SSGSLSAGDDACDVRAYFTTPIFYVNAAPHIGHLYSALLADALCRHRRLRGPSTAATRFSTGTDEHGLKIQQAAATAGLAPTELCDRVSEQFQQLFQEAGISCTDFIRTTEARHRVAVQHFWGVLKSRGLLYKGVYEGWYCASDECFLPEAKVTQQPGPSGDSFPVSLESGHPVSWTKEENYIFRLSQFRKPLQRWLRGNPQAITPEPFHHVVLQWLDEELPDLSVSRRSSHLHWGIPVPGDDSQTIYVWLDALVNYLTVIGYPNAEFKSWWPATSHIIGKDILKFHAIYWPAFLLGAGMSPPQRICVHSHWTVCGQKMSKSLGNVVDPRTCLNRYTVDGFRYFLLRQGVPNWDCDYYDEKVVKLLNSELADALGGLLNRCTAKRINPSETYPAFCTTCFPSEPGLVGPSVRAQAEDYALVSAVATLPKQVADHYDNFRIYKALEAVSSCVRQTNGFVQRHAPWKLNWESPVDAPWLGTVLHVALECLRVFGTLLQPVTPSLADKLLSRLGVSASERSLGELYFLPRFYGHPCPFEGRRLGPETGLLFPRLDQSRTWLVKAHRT

MRRF (human) = MRRF (human) (UniProt Q96E11)
TST (human) = TST (human) (UniProt Q16762)
Chain of TST (human) (Q16762 2-297 limits assumed): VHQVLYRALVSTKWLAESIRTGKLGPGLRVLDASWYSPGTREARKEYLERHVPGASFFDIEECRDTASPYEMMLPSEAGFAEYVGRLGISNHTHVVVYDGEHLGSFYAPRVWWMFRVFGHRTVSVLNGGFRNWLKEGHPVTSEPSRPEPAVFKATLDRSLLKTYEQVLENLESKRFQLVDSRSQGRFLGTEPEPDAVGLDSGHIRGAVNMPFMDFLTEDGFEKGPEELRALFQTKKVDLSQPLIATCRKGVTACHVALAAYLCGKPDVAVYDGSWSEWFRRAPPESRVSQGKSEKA

ZADH2 (human) = ZADH2 (human) (UniProt Q8N4Q0)
NUBPL (human) = NUBPL (human) (UniProt Q8TB37)
Chain of NUBPL (human) (Q8TB37 39-319 limits assumed): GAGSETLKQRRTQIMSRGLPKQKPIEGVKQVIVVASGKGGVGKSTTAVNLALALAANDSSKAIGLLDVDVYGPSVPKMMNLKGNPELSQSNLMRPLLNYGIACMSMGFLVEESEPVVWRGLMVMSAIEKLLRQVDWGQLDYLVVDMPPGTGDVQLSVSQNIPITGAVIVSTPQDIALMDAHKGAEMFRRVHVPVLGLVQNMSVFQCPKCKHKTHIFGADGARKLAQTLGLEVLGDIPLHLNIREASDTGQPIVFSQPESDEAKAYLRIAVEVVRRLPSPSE

NDUFS7 (human) = NDUFS7 (human) (UniProt O75251)
NDUFAF4 (human) = NDUFAF4 (human) (UniProt Q9P032)
FECH (human) = FECH (human) (UniProt P22830)
Chain of FECH (human) (P22830 55-423 limits assumed): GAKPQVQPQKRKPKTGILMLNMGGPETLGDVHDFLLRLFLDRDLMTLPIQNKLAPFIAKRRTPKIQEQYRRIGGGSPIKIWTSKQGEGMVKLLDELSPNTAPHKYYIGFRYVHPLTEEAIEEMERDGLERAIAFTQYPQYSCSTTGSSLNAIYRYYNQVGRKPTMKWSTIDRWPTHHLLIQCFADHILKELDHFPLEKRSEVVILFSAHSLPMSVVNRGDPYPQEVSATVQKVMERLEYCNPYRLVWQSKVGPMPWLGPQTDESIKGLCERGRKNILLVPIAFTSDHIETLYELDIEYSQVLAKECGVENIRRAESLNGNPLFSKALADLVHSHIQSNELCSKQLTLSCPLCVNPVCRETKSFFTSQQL

MDH2 (human) = MDH2 (human) (UniProt P40926)
NMNAT3 (human) = NMNAT3 (human) (UniProt Q96T66)
Chain of NMNAT3 (human) (Q96T66 whole entry): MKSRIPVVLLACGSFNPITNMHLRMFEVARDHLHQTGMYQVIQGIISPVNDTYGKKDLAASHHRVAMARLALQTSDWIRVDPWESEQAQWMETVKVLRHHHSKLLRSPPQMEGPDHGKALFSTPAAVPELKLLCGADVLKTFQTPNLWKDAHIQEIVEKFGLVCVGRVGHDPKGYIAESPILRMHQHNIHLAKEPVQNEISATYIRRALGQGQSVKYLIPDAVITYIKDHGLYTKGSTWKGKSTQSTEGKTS

TFAM (human) = TFAM (human) (UniProt Q00059)
PTPMT1 (human) = PTPMT1 (human) (UniProt Q8WUK0)
VARS2 (human) = VARS2 (human) (UniProt Q5ST30)
Chain of VARS2 (human) (Q5ST30 27-1063 limits assumed): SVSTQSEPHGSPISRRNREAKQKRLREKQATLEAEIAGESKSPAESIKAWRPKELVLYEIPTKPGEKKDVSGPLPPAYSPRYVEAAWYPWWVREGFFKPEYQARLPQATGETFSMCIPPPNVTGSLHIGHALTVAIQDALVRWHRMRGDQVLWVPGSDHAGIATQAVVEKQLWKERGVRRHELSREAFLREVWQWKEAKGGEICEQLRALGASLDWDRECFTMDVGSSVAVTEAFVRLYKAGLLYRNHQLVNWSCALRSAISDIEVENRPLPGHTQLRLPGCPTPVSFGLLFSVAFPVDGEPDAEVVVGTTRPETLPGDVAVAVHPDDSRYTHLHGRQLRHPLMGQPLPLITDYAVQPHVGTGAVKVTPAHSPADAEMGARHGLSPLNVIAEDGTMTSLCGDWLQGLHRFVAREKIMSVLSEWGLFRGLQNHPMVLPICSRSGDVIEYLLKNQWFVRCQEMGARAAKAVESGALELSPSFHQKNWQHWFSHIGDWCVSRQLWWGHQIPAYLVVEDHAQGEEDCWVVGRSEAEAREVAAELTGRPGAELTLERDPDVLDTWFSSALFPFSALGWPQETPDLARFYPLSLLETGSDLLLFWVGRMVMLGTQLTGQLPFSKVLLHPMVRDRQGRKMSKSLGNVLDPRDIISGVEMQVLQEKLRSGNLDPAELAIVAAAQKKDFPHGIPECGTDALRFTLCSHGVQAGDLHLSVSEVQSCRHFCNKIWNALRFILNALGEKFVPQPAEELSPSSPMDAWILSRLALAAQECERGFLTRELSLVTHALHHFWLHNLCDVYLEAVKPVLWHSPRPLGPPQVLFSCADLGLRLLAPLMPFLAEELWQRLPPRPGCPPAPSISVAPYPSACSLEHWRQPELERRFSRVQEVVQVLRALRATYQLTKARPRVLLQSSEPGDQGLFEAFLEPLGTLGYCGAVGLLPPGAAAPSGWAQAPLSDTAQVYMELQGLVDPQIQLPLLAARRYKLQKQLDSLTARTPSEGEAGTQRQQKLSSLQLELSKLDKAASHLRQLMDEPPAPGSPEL

WARS2 (human) = WARS2 (human) (UniProt Q9UGM6)
MRPL40 (human) = MRPL40 (human) (UniProt Q9NQ50)
ACSS1 (human) = ACSS1 (human) (UniProt Q9NUB1)
SSBP1 (human) = SSBP1 (human) (UniProt Q04837)
Chain of SSBP1 (human) (Q04837 17-148 limits assumed): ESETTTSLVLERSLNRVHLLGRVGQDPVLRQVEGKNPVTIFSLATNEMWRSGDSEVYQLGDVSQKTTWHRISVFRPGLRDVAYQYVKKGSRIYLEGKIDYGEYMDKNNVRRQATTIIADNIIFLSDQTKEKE

NDUFAF3 (human) = NDUFAF3 (human) (UniProt Q9BU61)
MTIF2 (human) = MTIF2 (human) (UniProt P46199)
MRPS6 (human) = MRPS6 (human) (UniProt P82932)
FOXRED1 (human) = FOXRED1 (human) (UniProt Q96CU9)
PITRM1 (human) = PITRM1 (human) (UniProt Q5JRX3)

Chain of GPT2 (human) (Q8TD30 whole entry): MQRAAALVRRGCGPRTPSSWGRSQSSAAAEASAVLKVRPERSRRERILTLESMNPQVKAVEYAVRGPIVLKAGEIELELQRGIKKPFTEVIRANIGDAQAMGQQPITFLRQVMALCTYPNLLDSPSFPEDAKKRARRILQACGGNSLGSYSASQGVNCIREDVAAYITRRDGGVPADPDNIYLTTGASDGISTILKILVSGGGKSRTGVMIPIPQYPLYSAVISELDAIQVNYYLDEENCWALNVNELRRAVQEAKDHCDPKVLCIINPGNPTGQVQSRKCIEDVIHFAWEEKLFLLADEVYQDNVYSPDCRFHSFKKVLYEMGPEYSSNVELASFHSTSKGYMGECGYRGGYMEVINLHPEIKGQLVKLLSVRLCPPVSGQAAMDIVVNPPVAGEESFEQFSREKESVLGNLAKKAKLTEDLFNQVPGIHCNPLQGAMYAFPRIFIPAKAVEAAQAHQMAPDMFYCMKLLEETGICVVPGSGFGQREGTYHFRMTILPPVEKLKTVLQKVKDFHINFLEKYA
Chain of DHRS4 (human) (Q9BTZ2 whole entry): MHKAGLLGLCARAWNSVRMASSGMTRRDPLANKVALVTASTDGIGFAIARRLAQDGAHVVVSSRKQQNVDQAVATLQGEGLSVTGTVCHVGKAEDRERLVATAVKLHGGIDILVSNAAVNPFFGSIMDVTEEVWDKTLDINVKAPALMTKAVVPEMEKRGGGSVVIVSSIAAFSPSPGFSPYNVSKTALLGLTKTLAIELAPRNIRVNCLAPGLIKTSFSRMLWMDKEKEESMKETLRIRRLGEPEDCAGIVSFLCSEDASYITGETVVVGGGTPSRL

Log2 Fold change (vs control) (ATPAF1 (human)): -2.17 log2
Log2 Fold change (vs control) (ECSIT (human)): -5.36 log2
Log2 Fold change (vs control) (DHRS4 (human)): -2.32 log2
Log2 Fold change (vs control) (AIFM1 (human)): -1.58 log2
Log2 Fold change (vs control) (GFM1 (human)): -1.08 log2
Log2 Fold change (vs control) (MRPS26 (human)): -6.38 log2
Log2 Fold change (vs control) (AFG3L2 (human)): -0.14 log2
Log2 Fold change (vs control) (ADCK3 (human)): -1.91 log2
Log2 Fold change (vs control) (ABAT (human)): -2.58 log2
Log2 Fold change (vs control) (ACADVL (human)): 0.55 log2
Log2 Fold change (vs control) (ACAD10 (human)): -4.09 log2
Log2 Fold change (vs control) (MGME1 (human)): 0.27 log2
Log2 Fold change (vs control) (MRPL47 (human)): -4.52 log2
Log2 Fold change (vs control) (BCKDHB (human)): -4.91 log2
Log2 Fold change (vs control) (SUPV3L1 (human)): -0.12 log2
Log2 Fold change (vs control) (MRPL46 (human)): -6.09 log2
Log2 Fold change (vs control) (ERAL1 (human)): -6.19 log2
Log2 Fold change (vs control) (ACADSB (human)): -1.76 log2
Log2 Fold change (vs control) (TARS2 (human)): -1.95 log2
Log2 Fold change (vs control) (MRPS11 (human)): -4.25 log2
Log2 Fold change (vs control) (EFHA1 (human)): -0.47 log2
Log2 Fold change (vs control) (HINT2 (human)): -1.17 log2
Log2 Fold change (vs control) (SFXN4 (human)): -0.58 log2
Log2 Fold change (vs control) (NADKD1 (human)): -2.04 log2
Log2 Fold change (vs control) (ABCB10 (human)): -0.24 log2
Log2 Fold change (vs control) (MRPL54 (human)): -4 log2
Log2 Fold change (vs control) (NDUFS8 (human)): -2.73 log2
Log2 Fold change (vs control) (BCKDHA (human)): -4.32 log2
Log2 Fold change (vs control) (MARS2 (human)): -4.52 log2
Log2 Fold change (vs control) (MRRF (human)): -5.49 log2
Log2 Fold change (vs control) (TST (human)): -5.55 log2
Log2 Fold change (vs control) (ZADH2 (human)): -3.46 log2
Log2 Fold change (vs control) (NUBPL (human)): -4.17 log2
Log2 Fold change (vs control) (NDUFS7 (human)): -1.81 log2
Log2 Fold change (vs control) (NDUFAF4 (human)): -1.11 log2
Log2 Fold change (vs control) (FECH (human)): -1.56 log2
Log2 Fold change (vs control) (MDH2 (human)): -0.24 log2
Log2 Fold change (vs control) (NMNAT3 (human)): -4 log2
Log2 Fold change (vs control) (TFAM (human)): -1.61 log2
Log2 Fold change (vs control) (PTPMT1 (human)): -0.48 log2
Log2 Fold change (vs control) (VARS2 (human)): -5.52 log2
Log2 Fold change (vs control) (WARS2 (human)): -1.27 log2
Log2 Fold change (vs control) (MRPL40 (human)): -5.09 log2
Log2 Fold change (vs control) (ACSS1 (human)): -4.46 log2
Log2 Fold change (vs control) (SSBP1 (human)): 0.07 log2
Log2 Fold change (vs control) (NDUFAF3 (human)): -0.73 log2
Log2 Fold change (vs control) (MTIF2 (human)): -5.55 log2
Log2 Fold change (vs control) (MRPS6 (human)): -4.52 log2
Log2 Fold change (vs control) (FOXRED1 (human)): -4.09 log2
Log2 Fold change (vs control) (PITRM1 (human)): -4.25 log2
Substance: FlagBirA-ClpP (WT) (from UniProt P06709 1-321; Q16740 57-277) (enzyme)
Log2 Fold change (vs control) (GPT2 (human)): -3.7 log2
